In patent US20040014159:

Tests used:
[1] = system: T1, bis-SPK-2 (KKALRRASLKG-R110-GKLSARRLAKK)
T1 sequence: KKALRRASLKG

[2] = system: T2, bis-STP-R110 (RRAT(PO3)VA-R110-AV(PO3)TARR)
T2 sequence: RRATVA

[3] = system: T3, bis-PTK5p-R110 (YIY(PO3)GAFKRRG-R110-GRRKFAG(PO3)YIY)
T3 sequence: YIYGAFKRRG

[4] = system: T4, kemptide-AMC (LRRASLG-AMC)
T4 sequence: LRRASLG

[5] = system: T5, bis-SPK-4 (KKALRKASVRG-R110-GRVSAKRLAKK)
T5 sequence: KKALRKASVRG

[6] = system: T6, LRRASLG-R110-GLSARRL, bis-rhodamine peptide kinase substrate (bis-kemptide)
T6 sequence: LRRASLG

[7] = system: T7, bis-PTK-5 (YIYGAFKRRG-R110-GRRKFAGYIY)
T7 sequence: YIYGAFKRRG

[8] = biological target: T8, bis-PTK5p-R110 (YIY(PO3)GAFKRRG-R110-GRRKFAG(PO3)YIY) (not fully specified)
T8 chain: YIYGAFKRRG

Molecule: AKT
- fluorescence output after aminopeptidase M [1]: the change in output fluorescence in each assay was inversely proportional to the amount of enzyme in the reaction (Results not shown)

Molecule: PKC
- fluorescence output after aminopeptidase M [1]: the change in output fluorescence in each assay was inversely proportional to the amount of enzyme in the reaction (Results not shown)

Molecule: PKG
- fluorescence output after aminopeptidase M [1]: the change in output fluorescence in each assay was inversely proportional to the amount of enzyme in the reaction (Results not shown)

Molecule: PP1
- fluorescence output after aminopeptidase M [2]: The results obtained show excellent proportionality between the fluorescence output and dephosphorylation of the substrate

Molecule: PP2B
- fluorescence output after aminopeptidase M [2]: The results obtained show excellent proportionality between the fluorescence output and dephosphorylation of the substrate

Molecule: PP2C
- fluorescence output after aminopeptidase M [2]: The results obtained show excellent proportionality between the fluorescence output and dephosphorylation of the substrate

Molecule: YOP 51
- fluorescence output after aminopeptidase M [3]: A similar profile was obtained with other tyrosine phosphatases, including YOP 51

Molecule: catalytic subunit of cAMP-dependent protein kinase (PKA)
- fluorescence output (AMC) after aminopeptidase M, with and without 50 uM ATP [4]: In the presence of ATP, the fluorescence output decreased in proportion to the increase in amount of enzyme
- kinase reaction, fluorescence output after aminopeptidase M [1]: the peptide substrate bis-SPK-2 is a better substrate for PKA than the peptide substrate bis-SPK-4
- kinase reaction, fluorescence output after aminopeptidase M [5]: the peptide substrate bis-SPK-2 is a better substrate for PKA than the peptide substrate bis-SPK-4
- fluorescence output (RFU) after aminopeptidase M [6]: there is a corresponding decrease in fluorescence output with increasing concentration or units of enzyme in the reaction

Molecule: serine/threonine phosphatase PP2A
- fluorescence output after Aminopeptidase II [2]: an increase in phosphatase activity resulted in an increase in fluorescence
- fluorescence output after aminopeptidase M [2]: PP2A dephosphorylated the substrate efficiently, and fluorescence increased proportionally to the amount of enzyme in the reaction

Molecule: tyrosine kinase lck
- fluorescence output after aminopeptidase M, with and without 100 uM ATP [7]: where 100 um ATP was included the decrease in fluorescence output was proportional to the increase in amount of enzyme in the reaction, and little or no change was observed in the absence of ATP

B1: CD45, recombinant human receptor protein tyrosine phosphatase (protein)
chain: SCNLDEQQELVERDDEKQLMNVEPIHADILLETYKRKIADEGRLFLAEFQSIPRVFSKFPIKEARKPFNQNKNRYVDILPYDYNRVELSEINGDAGSNYINASYIDGFKEPRKYIAAQGPRDETVDDFWRMIWEQKATVIVMVTRCEEGNRNKCAEYWPSMEEGTRAFGDVVVKINQHKRCPDYIIQKLNIVNKKEKATGREVTHIQFTSWPDHGVPEDPHLLLKLRRRVNAFSNFFSGPIVVHCSAGVGRTGTYIGIDAMLEGLEAENKVDVYGYVVKLRRQRCLMVQVEAQYILIHQALVEYNQFGETEVNLSELHPYLHNMKKRDPPSEPSPLEAEFQRLPSYRSWRTQHIGNQEENKSKNRNSNVIPYDYNRVPLKHELEMSKESEHDSDESSDDDSDSEEPSKYINASFIMSYWKPEVMIAAQGPLKETIGDFWQMIFQRKVKVIVMLTELKHGDQEICAQYWGEGKQTYGDIEVDLKDTDKSSTYTLRVFELRHSKRKDSRTVYQYQYTNWSVEQLPAEPKELISMIQVVKQKLPQKNSSEGNKHHKSTPLLIHCRDGSQQTGIFCALLNLLESAETEEVVDIFQVVKALRKARPGMVSTFEQYQFLYDVIASTYPAQNGQVKKNNHQEDKIEFDNEVDKVKQDANCVNPLGAPEKLPEAKEQAEGSEPTSGTEGPEHSVNGPASPALNQGS
- fluorescence output after aminopeptidase M [8]: the increase in the fluorescence output is proportional to the amount of phosphatase added per reaction

B2: PTP-1B, soluble tyrosine phosphatase (enzyme, UniProt P18031 1-435, looked up, species assumed)
Tyrosine-protein phosphatase non-receptor type 1: MEMEKEFEQIDKSGSWAAIYQDIRHEASDFPCRVAKLPKNKNRNRYRDVSPFDHSRIKLHQEDNDYINASLIKMEEAQRSYILTQGPLPNTCGHFWEMVWEQKSRGVVMLNRVMEKGSLKCAQYWPQKEEKEMIFEDTNLKLTLISEDIKSYYTVRQLELENLTTQETREILHFHYTTWPDFGVPESPASFLNFLFKVRESGSLSPEHGPVVVHCSAGIGRSGTFCLADTCLLLMDKRKDPSSVDIKKVLLEMRKFRMGLIQTADQLRFSYLAVIEGAKFIMGDSSVQDQWKELSHEDLEPPPEHIPPPPRPPKRILEPHNGKCREFFPNHQWVKEETQEDKDCPIKEEKGSPLNAAPYGIESMSQDTEVRSRVVGGSLRGAQAASPAKGEPSLPEKDEDHALSYWKPFLVNMCVATVLTAGAYLCYRFLFNSNT
- fluorescence output after aminopeptidase M [3]: the increase in the fluorescence output is proportional to the amount of phosphatase added per reaction
